Measurements: patent US20230012273A1 (Boehringer Ingelheim, published 2023)
Substitutions are numbered along the chain they refer to.

Columns and labels:
[1] = molecular target: T1, full-length cynomolgus SIRPα (EGM-02252) on CHO cells, clone H3A9 (cynomolgus monkey, UniProt A0A2K5VYQ9); experiment: flow cytometry, CHO cells
T1 construct: whole, on cells; also called EGM-02252 Clone H3A9
T1 sequence: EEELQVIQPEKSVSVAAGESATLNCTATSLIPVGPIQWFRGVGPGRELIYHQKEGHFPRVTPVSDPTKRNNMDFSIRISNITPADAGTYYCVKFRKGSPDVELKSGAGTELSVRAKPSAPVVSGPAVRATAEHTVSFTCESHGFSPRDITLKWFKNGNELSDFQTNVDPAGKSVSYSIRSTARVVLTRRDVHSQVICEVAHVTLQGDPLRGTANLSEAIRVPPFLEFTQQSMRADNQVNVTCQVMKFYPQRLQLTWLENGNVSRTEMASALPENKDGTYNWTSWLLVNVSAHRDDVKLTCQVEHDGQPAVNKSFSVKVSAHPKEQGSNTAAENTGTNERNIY
Method: Antibody binding to cells expressing cynomolgus (cyno) SIRPα was evaluated by flow cytometry. CHO-K1 cells expressing full-length cyno SIRPα; derived from protein sequence accession numbers (A) EGM-02252; (B) XP_015313155; or (C) NP_001271679, are blocked with donkey IgG and incubated on ice with increasing concentrations of antibodies for 60 minutes, washed and stained with AF647-conjugated donkey F(ab′)₂ anti-human IgG secondary reagent. Cells are washed, fixed, and analyzed by flow cytometry. Median fluorescent intensity is determined and used as a measure of antibody binding.

[2] = molecular target: T2, full-length human SIRPγ E→D on Expi-CHO cells (human, UniProt Q9P1W8 29-387); experiment: flow cytometry, Expi-CHO cells expressing full-length human SIRPγ E→D
T2 construct: the entry already carries the change (PENV to PDNV)
Method: Expi-CHO parental cells are transduced with lentiviruses containing either full-length wild-type human SIRPγ ([…]) or full-length human SIRPγ with amino acid point mutations (Table 64) and sorted to achieve matching expression levels. These cells are blocked with donkey IgG and incubated on ice with increasing concentrations of antibodies for 60 minutes, washed and stained with AF647-conjugated donkey F(ab′)₂ anti-human IgG antibodies. Stained cells are washed, fixed, and analyzed by flow cytometry. Median fluorescent intensity is determined and used as a measure of antibody binding.

[3] = molecular target: T3, recombinant human SIRPγ extracellular domain (ECD)/His protein (NP_061026.2) (human, UniProt Q9P1W8 29-360); experiment: ELISA, immobilised His-tagged human SIRPγ extracellular domain (average fluorescence)
T3 construct: coated on ELISA plates; also called recombinant hSIRPγ; not shown: His-tag
Method: A biochemical ELISA-based assay is utilized to evaluate the binding of antibodies to SIRPγ. Black, 96-well flat-bottom immunoassay plates are coated with recombinant human SIRPγ extracellular domain (ECD)/His protein (NP_061026.2) diluted in DPBS and incubated overnight at 4° C. […] Plates are washed and serially titrated antibodies are added to respective wells for an incubation of about 1-2 h at RT. After the incubation, the plates are washed and HRPO-conjugated mouse anti-human IgG secondary reagent (Jackson Immuno Research) is added to each well and incubated for about 1-2 hours. Following the final plate washing, Amplex™ red substrate is added and incubated at RT in the dark for 15-30 minutes. Fluorescence is detected (λEx/λEm=530/590 nm) using EnVision Multilabel Plate Reader (Perkin Elmer). Average fluorescence is plotted for measuring the antibody binding.

[4] = molecular target: T4, full-length human SIRPαV1 (NP_542970.1) on cells (human, UniProt P78324 31-504); experiment: flow cytometry, CHO-K1 cells
T4 construct: one molecule for CHO-K1 and Expi-CHO transfectants (NP_542970.1) and for endogenous V1 on U-937 cells and on CD14+ monocytes of V1/V1 donors; also called CHO-hSIRPαV1; αV1 WT
Method: (§1) Antibody binding to cells expressing SIRPα is evaluated by flow cytometry. CHO-K1 parental cells (negative control), CHO-K1 cells expressing full-length human SIRPαV1 (NP_542970.1) or CHO-K1 cells expressing full-length human SIRPαV2 (CAA71403.1) are blocked with donkey IgG and incubated on ice with increasing concentrations of antibodies for 60 minutes, washed and stained with AF647-conjugated donkey F(ab′)₂ anti-human IgG secondary reagent. Cells are washed, fixed, and analyzed by flow cytometry. Median fluorescent intensity is determined and used as a measure of antibody binding.

[5] = molecular target: T5, full-length human SIRPαV2 (CAA71403.1) on cells (human, UniProt P78324 31-504); experiment: flow cytometry, CHO-K1 cells
T5 construct: one molecule for CHO-K1 and Expi-CHO transfectants (CAA71403.1) and for endogenous V2 on THP-1 cells and on CD14+ monocytes of V2/V2 donors; also called CHO-hSIRPαV2; αV2 WT
Method: as §1

[6] = molecular target: T5, full-length human SIRPαV2 (CAA71403.1) …; experiment: flow cytometry, THP-1 cells (endogenous V2)
Method: (§2) Antibody binding to human monocytic cell lines homozygous for the V1-allele (U-937) or the V2-allele (THP-1) of SIRPα is assessed. U-937 or THP-1 cells are blocked with donkey IgG and incubated on ice with increasing concentrations of antibodies for 60 minutes, washed and stained with AF647-conjugated donkey F(ab′)₂ anti-human IgG secondary reagent. Cells are washed, fixed, and analyzed by flow cytometry. Median fluorescent intensity is determined and used as a measure of antibody binding.

[7] = molecular target: T4, full-length human SIRPαV1 (NP_542970.1) …; experiment: flow cytometry, U-937 cells (endogenous V1)
Method: as §2

[8] = molecular target: T4, full-length human SIRPαV1 (NP_542970.1) …; experiment: flow cytometry, competition with CD47 tetramer, CHO-K1 cells
Method: (§3) Cells are washed, fixed, and analyzed by flow cytometry. Median fluorescent intensity is determined and used as a measure of CD47 binding.

[9] = molecular target: T5, full-length human SIRPαV2 (CAA71403.1) …; experiment: as above
Method: as §3

[10] = molecular target: T5, full-length human SIRPαV2 (CAA71403.1) …; experiment: flow cytometry, competition with CD47 tetramer, monocytes V2V2
Method: Cells are washed, fixed, and analyzed by flow cytometry. Median fluorescent intensity of CD14+gated population is determined and used as a measure of CD47 binding.

B1: Antibody A (antibody, human IgG1, kappa, L234A L235A)
heavy: not shown
light: DIQMTQSPSSLSASVGDRVTITCRASQDINNYLAWFQQKPGKAPKSLIYTASSLHSGVPSKFSGSGSGTDFTLTISSLQPEDFATYYCQQYVSYPYTFGQGTKLEIKRTVAAPSVFIFPPSDEQLKSGTASVVCLLNNFYPREAKVQWKVDNALQSGNSQESVTEQDSKDSTYSLSSTLTLSKADYEKHKVYACEVTHQGLSSPVTKSFNRGEC
- EC50 [1]: 1.9 nM
- binding result [2]: no binding (tested: about 67 nM)
- binding result [3]: no binding (tested: about 67 nM)

B2: Antibody A10 (antibody, human IgG1, kappa, L234A L235A)
heavy: not shown
light: B1 light
- EC50 [1]: 1.5 nM
- binding result [2]: no binding (tested: about 67 nM)

B3: Antibody C (antibody, human IgG1, kappa, L234A L235A, V domains shown)
VH: EVQLVESGGGLVQPGGSLRLSCAASGFTFSSYDMHWVRQATGKGLEWVSVIGIAGDTYYPGSVKGRFTISRENAKNSLYLQMNSLRVGDTAVYYCARGGSWDDAFDIWGQGTMVTVSS
VL: DIQMTQSPSSLSASIGDKVTITCRASQDINNYLAWFQQKPGKAPKSLIYTASSLQSGVPSKFSGSGSGTDFTLTISSLQPEDFATYYCQQYVSYPYTFGQGTKLEIKR
- EC50 [4]: 1 nM
- EC50 [5]: 0.5 nM
- EC50 [6]: 0.3 nM
- EC50 [7]: 0.6 nM
- IC50 [8]: 0.7 nM
- IC50 [9]: 0.3 nM
- IC50 [10]: 0.05 nM

B4: Antibody B (antibody, human IgG1, kappa, L234A L235A, V domains shown)
VH: QVQLVQSGAEVKKPGASVKVSCKASGYTFTGNYMHWVRQAPGQGLEWMGWINPNSGGTNYAQKFQGRVTMTRDTSISTAYMELSRLRSDDTAVYYCVSGSGWYENYYYYGMDVWGQGTTVTVSS
VL: DIQMTQSPSSVSASVGDRVTITCRASQGISSWLAWYQQKPGKAPKLLIYAESSLQSGVPSRFSGSGSGTDFTLTISSLQPEDFATYYCQQANSFPLTFGGGTKVEIKR
- EC50 [4]: 12 nM
- EC50 [5]: 14.2 nM
- EC50 [6]: 22.3 nM
- EC50 [7]: 21.1 nM
- IC50 [8]: 5.6 nM
- IC50 [9]: 6 nM
- IC50 [10]: 4.6 nM
- binding result [3]: no binding (tested: about 67 nM)

B5: Antibody D (antibody, human IgG1, kappa, L234A L235A, V domains shown)
VH: B3 VH with Y32F, A40P, V50T, Y59F, V87A, S100N, F105L
VL: B3 VL with I15V, K18R, V92N, S93T
- EC50 [4]: 0.7 nM
- EC50 [5]: 0.5 nM
- EC50 [6]: 0.3 nM
- EC50 [7]: 0.5 nM
- IC50 [8]: 0.6 nM
- IC50 [9]: 0.3 nM
- IC50 [10]: 0.05 nM
- binding result [3]: no binding (tested: about 67 nM)

B6: Antibody E (antibody, human IgG1, kappa, L234A L235A)
heavy: not shown
light: DIVMTQSPLSLPVTPGEPASISCKSSQSLLYSNGYNYLDWYLQRPGQSPQLLIYLGSNRASGVPDRFSGSGSGTDFTLKISRVEAEDVGVFYCMQALQTPLTFGGGTKVEIKRTVAAPSVFIFPPSDEQLKSGTASVVCLLNNFYPREAKVQWKVDNALQSGNSQESVTEQDSKDSTYSLSSTLTLSKADYEKHKVYACEVTHQGLSSPVTKSFNRGEC
- EC50 [4]: 2 nM
- EC50 [5]: 0.9 nM
- EC50 [6]: 0.4 nM
- EC50 [7]: 0.5 nM
- IC50 [8]: 0.7 nM
- binding result [2]: no binding (tested: about 67 nM)
- binding result [3]: no binding (tested: about 67 nM)

B7: Antibody E22 (antibody, human IgG1, kappa, L234A L235A, V domains shown)
VH: QVQLQESGPGLVKPSETLSLTCTVSGGSIRDYYWSWIRQPPGKGLEWIGFIYYNGRTFYQSSLKSRVTISLDTSKNQFSLKMTSVTAADTAVYYCARVRAYSGIGLDGTDVWGQGTTVTVSS
VL: DIVMTQSPLSLPVTPGEPASISCRSSQSLLYSTGYTYLDWYLQRPGQSPQLLIYGGSSRASGVPDRFSGSGSGTDFTLKISRVEAEDVGVFYCGQALQTPLTFGQGTKVEIKR
- IC50 [10]: 0.3 nM
- binding result [2]: no binding (tested: about 67 nM)

B8: Anti-SIRPα antibody KWAR23 (antibody, V domains shown)
VH: EVQLQQSGAELVKPGASVKLSCTASGFNIKDYYIHWVQQRTEQGLEWIGRIDPEDGETKYAPKFQDKATITADTSSNTAYLHLSSLTSEDTAVYYCARWGAYWGQGTLVTVSS
VL: QIVLTQSPAIMSASPGEKVTLTCSASSSVSSSYLYWYQQKPGSSPKLWIYSTSNLASGVPARFSGSGSGTSYSLTISSMEAEDAASYFCHQWSSYPRTFGAGTKLELK
- EC50 [1]: 0.9 nM
- EC50 [4]: 1 nM
- EC50 [5]: 0.5 nM
- EC50 [6]: 0.2 nM
- EC50 [7]: 0.5 nM
- IC50 [8]: 0.9 nM
- IC50 [9]: 0.6 nM
- IC50 [10]: 0.11 nM
